In US20240100176A1 (Eli Lilly, published 2024):

T1: human FcγRIIA_131R (CD32a) extracellular domain (human, UniProt P12318 34-217)
T1 construct: extracellular domain
T1 sequence (looked up): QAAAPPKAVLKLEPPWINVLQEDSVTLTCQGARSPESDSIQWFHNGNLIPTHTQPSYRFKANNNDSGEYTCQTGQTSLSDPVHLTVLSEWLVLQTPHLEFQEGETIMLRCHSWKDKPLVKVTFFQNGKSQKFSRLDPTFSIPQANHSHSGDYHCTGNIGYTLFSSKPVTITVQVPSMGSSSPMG

T2: human FcγRIIb (CD32b) extracellular domain (human, UniProt P31994 43-217)
T2 construct: extracellular domain
T2 sequence (looked up): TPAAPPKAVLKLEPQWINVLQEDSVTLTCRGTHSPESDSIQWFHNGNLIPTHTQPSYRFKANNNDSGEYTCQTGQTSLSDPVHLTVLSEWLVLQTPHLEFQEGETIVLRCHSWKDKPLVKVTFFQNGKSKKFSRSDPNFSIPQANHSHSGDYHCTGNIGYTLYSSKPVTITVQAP


Experiments:
[1] = biological target: T3, hexahistidine tagged human IL-4Rα ECD D66R (human, UniProt P24394 26-232); assay: capture ELISA, His-tagged receptor mutant
T3 construct: also called D66R IL-4Rα; not shown: hexahistidine tag
Source text: Example 2d. […] Briefly, thirty surface amino acid residue substitutions were introduced individually into hexahistidine tagged human IL-4Rα extra cellular domain (ECD) as follows: K2D, E6R, K22D, P26R, T31R, F41A, L42G, L43G, E45R, E52R, G56R, D66R, A71R, Q82G, K87D, E94R, H107A, D108R, P124R, D125R, D143R, R148D, L155R, R160D, S164R, S168R, Q181R, P192R, K195D, or H197G. Each mutant protein having a single amino acid residue substitution as described above was transiently expressed in CHO cells and purified using standard immobilized metal affinity chromatography techniques. […] The plates were then washed 3 times with PBST and the exemplified human IL-4Rα antibody was added to the wells at a final concentration of 1 μg/mL in PBS-casein and incubated for 1 hour at room temperature. The plates were washed 3 times with PBST, the IL-4Rα mutant proteins were serially diluted 5-fold from 1 μg/mL for 3 points. in PBS-casein and added to the plate at 50 μL/well and incubated for 1 hour at room temperature. […] The plates were washed 3 times, TMB substrate (Pierce, Cat. #34028) was added per manufacturer instructions, the reaction was quenched with H₂SO₄, and absorbance was read at 450 nm on an ELISA plate reader.

[2] = biological target: T1, human FcγRIIA_131R (CD32a) …; assay: SPR (Biacore), antibody captured on protein A, FcγR ECD as analyte, steady state, 25 °C
Protocol: (§1) Unreacted sites were blocked with a 7 minute injection of ethanolamine at 10 μL/minute. Injections of 2×10 μL of glycine, pH 1.5, was used to remove any noncovalently associated protein. Running buffer was 1×HBS-EP+(TEKNOVA, P/N H8022). The FcγR extracellular domains (ECDs)-FcγRI (CD64), FcγRIIA_131R, and FcγRIIA_131H (CD32a), FcγRIIIA_158V, FcγRIIIA_158F (CD16a), and FcγRIIb (CD32b) were produced from stable CHO cell expression and purified using IgG Sepharose and size exclusion chromatography. For FcγRI binding, antibodies were diluted to […] in running buffer, and approximately 150 RU of each antibody was captured in FCs 2 through 4 (RU captured). FC1 was the reference FC, therefore no antibody was captured in FC1. […] Duplicate injections of each concentration were injected over all FCs at 40 μL/minute for 120 seconds followed by a 1200 second dissociation phase. Regeneration was performed by injecting 15 μL of 10 mM glycine, pH 1.5, at 30 μL/minute over all FCs. Reference-subtracted data was collected as FC2 FC1, FC3-FC1, and FC4-FC1 and the measurements were obtained at 25° C. The affinity (KD) was calculated using either steady state equilibrium analysis with the Scrubber 2 Biacore Evaluation Software or a “1:1 (Langmuir) binding” model in BIA Evaluation. For FcγRIIa, FcγRIIb, and FcγRIIIa binding, antibodies were diluted to 5 μg/mL in running buffer, and approximately 500 RU of each antibody was captured in FCs 2 through 4). FC1 was the reference FC. […] Duplicate injections of each concentration were injected over all FCs at 40 μL/minute for 60 seconds followed by a 120 second dissociation phase. Regeneration was performed by injecting 15 μL of 10 mM glycine, pH 1.5, at 30 μL/minute over all FCs. Reference-subtracted data was collected as FC2-FC1, FC3-FC1, and FC4-FC1, and the measurements were obtained at 25° C. The affinity (KD) was calculated using the steady state equilibrium analysis with the Scrubber 2 Biacore Evaluation Software. Each receptor was assayed at least two times.

[3] = biological target: T2, human FcγRIIb (CD32b) extracellular …; assay: as above
Protocol: as §1

binding result [1]	Kd [2]	Kd [3]	Binder
no binding (tested: 1 µg/mL)	–	–	anti-human IL-4Rα antibody Ab1 (antibody, human IgG4 S228P, kappa, human kappa light chain; also called anti-human IL-4Rα Ab1; unconjugated Ab1) heavy: QVQLVESGGGLVQPGGSLRLSCVASGFTFSHSSMNWVRQAPGKGLEWVSYISRATGAVYYADSVKGRFTISRDNAKNSLYLQMNSLRDEDTAVYYCAREPVFDYWGQGTLVTVSSASTKGPCVFPLAPCSRSTSESTAALGCLVKDYFPEPVTVSWNSGALTSGVHTFPAVLQSSGLYSLSSVVTVPSSSLGTKTYTCNVDHKPSNTKVDKRVESKYGPPCPPCPAPEFLGGPSVFLFPPKPKDTLMISRTPEVTCVVVDVSQEDPEVKFNWYVDGVEVHNAKTKPREEQFNSTYRVVSVLTVLHQDWLNGKEYKCKVSNKGLPSSIEKTISKAKGQPREPQVYTLPPSREEMTKNQVSLTCLVKGFYPSDICVEWESNGQPENNYKTTPPVLDSDGSFFLYSRLTVDKSRWQQGNVFSCSVMHEALHNHYTQKSLSLSLG light: DIQMTQSPSAMSASVGDRVTITCRASQDISNYLAWFQQKPGKVPTRLIYAASSLQSGVPSRFSGSGSGTEFTLTISSLQPEDFATYYCLQWSSYPRTFGQGTKVEIKRTVAAPSVFIFPPSDEQLKSGTASVVCLLNNFYPREAKVQWKVDNALQSGNSQESVTEQDSKDSTYSLSSTLTLSKADYEKHKVYACEVTHQGLSSPVTKSFNRGEC
–	1820 nM	1960 nM	anti-human IL-4Rα Ab1 GC conjugate of Example 1b (n=4) (antibody, human IgG4 S228P, kappa, glucocorticoid receptor agonist payload-linker (GC-L, Preparation 8) conjugated to the engineered cysteines at the 124 and 378 position of the heavy chain (EU numbering); n is 4 (average DAR 4.17 by RP-HPLC, 3.85 by TOF MS)) heavy: QVQLVESGGGLVQPGGSLRLSCVASGFTFSHSSMNWVRQAPGKGLEWVSYISRATGAVYYADSVKGRFTISRDNAKNSLYLQMNSLRDEDTAVYYCAREPVFDYWGQGTLVTVSSASTKGPCVFPLAPCSRSTSESTAALGCLVKDYFPEPVTVSWNSGALTSGVHTFPAVLQSSGLYSLSSVVTVPSSSLGTKTYTCNVDHKPSNTKVDKRVESKYGPPCPPCPAPEFLGGPSVFLFPPKPKDTLMISRTPEVTCVVVDVSQEDPEVKFNWYVDGVEVHNAKTKPREEQFNSTYRVVSVLTVLHQDWLNGKEYKCKVSNKGLPSSIEKTISKAKGQPREPQVYTLPPSREEMTKNQVSLTCLVKGFYPSDICVEWESNGQPENNYKTTPPVLDSDGSFFLYSRLTVDKSRWQQGNVFSCSVMHEALHNHYTQKSLSLSLG light: DIQMTQSPSAMSASVGDRVTITCRASQDISNYLAWFQQKPGKVPTRLIYAASSLQSGVPSRFSGSGSGTEFTLTISSLQPEDFATYYCLQWSSYPRTFGQGTKVEIKRTVAAPSVFIFPPSDEQLKSGTASVVCLLNNFYPREAKVQWKVDNALQSGNSQESVTEQDSKDSTYSLSSTLTLSKADYEKHKVYACEVTHQGLSSPVTKSFNRGEC
